From US8741840B2, “BMP-7 for use in treating neointimal hyperplasia” (Washington University, priority 2008, dated 2014)

How the values were obtained:
hVSMC = experiment: RT-PCR of contractile VSMC markers in hVSMC; format: cell-based, human
Description: Cell Culture: Human adult aorta were obtained from seven cadaveric organ donors rejected because of atherosclerosis by Mid-America Transplant Services (St. Louis, Mo.) and enzymatically digested to obtain Human Smooth Muscle Cells (HSMC). Medial tissue was separated from the adventia and intima and digested with collagenase type I (Worthington, Lakewood, N.J.) 2 mg/ml for 1 hr, and washed with Hank's balanced salt solution (HBSS). Further digestion followed with collagenase type II 1 mg/ml (Worthington, Lakewood, N.J.) and elastase 0.25 mg/ml (Worthington, Lakewood, N.J.) for 4 hrs. Cell suspensions were washed twice with HBSS and cultured in T-75 flasks for three weeks in a 95%/5% air/CO2 humidified environment at 37° C. The growth medium used was DMEM containing […] glucose (high glucose), 10% fetal bovine serum (FBS, Atlas, Fort Collins, Colo.), 1 mM sodium pyruvate, 100 units/ml Penicillin and […] Streptomycin (Sigma, St Louis, Mo.). Cell purity was assessed by positive immunostaining for α-smooth muscle actin and calponin and for the absence of von Willebrand factor. In all experimental protocols, cells were seeded at 1×10^5 cells/well in six-well plates. Medium was changed on the first day and every third day thereafter. In all cases, cells used were between passages two and five (Table 3).
RT-PCR: RNA was extracted from cell cultures using RNeasy Mini Kits (Qiagen, Valencia, Calif.). Semi-quantitative RT-PCR was conducted using Roche 1st Strand cDNA Synthesis Kit (Indianapolis, Ind.) and PCR kit from Invitrogen (Grand Island, N.Y.) according to manufacturer's instructions using a two-step method. […] The number of cycles necessary to amplify cDNA but remain within the exponential amplification range was determined for each primer set. […] Genomic contamination was assessed by heat inactivation of the reverse transcriptase prior to RT-PCR. Primers were designed using Vector NTI soft ware (Invitrogen, Grand Island, N.Y.) and optimal conditions for each prime pairs were determined (Table 4). […] The band intensity was analyzed first by scanning the gel on a Typhoon 9410 gel imager (Amersham Biosciences), quantified by using TotalLab software v2003.03 (Nonlinear Dynamics, Durham, N.C.) and normalized for loading by comparison to GAPGH. […]
Expression of contractile VSMC markers in human cells. […] Calponin (Panel A), alpha smooth muscle actin (alpha SMA) (Panel B), heavy chain myosin (MHSCM) (Panel C), and SM22 alpha (Panel D) message levels detected by RT-PCR were low in hVSMC in basal conditions (open bars, Group A) and in the presence of high phosphorus media (black bars, Group B). […] The data in Panels A-D were normalized to the expression level in basal culture conditions and expressed as fold induction, mean±SEM, n=3. […]

[1] = tested on: LDLR−/− mice with CKD on high fat diet; settings: LDLR-/- mice with CKD fed high fat diets; previous studies (Davies 2003; Davies 2005); cited from earlier work

B1: BMP-7: bone morphogenetic protein-7 (osteogenic protein-1), mineralization-countering morphogen; provided by Johnson and Johnson (protein, listed as Homo sapiens)
chain: STGSKQRSQNRSKTPKNQEALRMANVAENSSSDQRQACKKHELYVSFRDLGWQDWIIAPEGYAAYYCEGECAFPLNSYMNATNHAIVQTLVHFINPETVPKPCCAPTQLNAISVLYFDDSSNVILKKYRNMVVRACGCH
- Calponin message level (hVSMC; high phosphorus media plus BMP-7 (FIG. 8A)): induced expression of each of the marker proteins
- alpha smooth muscle actin (alpha SMA) message level (hVSMC; high phosphorus media plus BMP-7 (FIG. 8B)): induced expression of each of the marker proteins
- heavy chain myosin (MHSCM) message level (hVSMC; high phosphorus media plus BMP-7 (FIG. 8C)): induced expression of each of the marker proteins
- SM22 alpha message level (hVSMC; high phosphorus media plus BMP-7 (FIG. 8D)): induced expression of each of the marker proteins
- development of aortic calcification (prevention studies) [1]: prevented the development of aortic calcification
